Assay results: US20190309074A1, “DEGLYCOSYLATED ANTIBODY SPECIFICALLY BINDING TO CLEC14A AND USES THEREOF” (WOORI TECHNOLOGIES CORPORATION, priority 2016, published 2019)

Legend:
[1] = aggregation and purification amounts of deglycosylated antibodies, before and after φ; format: physicochemical; details: based on 100 ml culture
HUVECs = experiment: HUVEC viability (cell counting Kit-8); format: cell-based, human; details: 2 days
Experimental: In order to evaluate effects of deglyco C1 IgG on toxicity of endothelial cells, after treatment with deglyco C1 IgG, viability of HUVECs was measured. Viability was measured in accordance with the manufacturer's manual through cell counting Kit-8 (#CK04-13, Dojindo Laboratories, Kumamoto, Japan).

[2] = tested on: binding of clec14a-CTLD to HUVECs; experiment: cell ELISA: hclec14a-CTLD-Fc-HRP binding to HUVECs; format: cell-based, human; details: increasing antibody concentration
Experimental: In order to analyze action mechanisms of deglyco C1 IgG at a molecule-scale, specifically, in angiogenesis, HUVECs were treated with hclec14a-CTLD-Fc-HRP (HRP-labeled hclec14a-CTLD-Fc) in the absence or presence of an increasing concentration of parent antibody IgG or deglyco C1 IgG.

U87 human glioma = experiment: U87 tumor growth; format: in vivo
HUVEC migration = HUVEC migration (wound healing) assay; format: cell-based, human; details: % of MOCK
Experimental: (§1) Genetic mutation introduced during antibody engineering induces unpredicted defects, resulting in deterioration in antibody functions. In order to isolate antibodies for suppressing clec14a-mediated angiogenesis, tube formation and endothelial cell migration assay using human umbilical vein endothelial cells (HUVECs) were conducted in the presence or absence of clone 1 IgG and deglyco C1-C4 IgGs. Among the four types of deglyco IgGs, deglyco C1 IgG was selected as a candidate antibody. […] In addition, it can be seen that deglyco C1 IgG includes desired alterations (N32R/N33C/S34G) in the amino acid sequence in light chain CDR1.
(§2) In order to compare in vitro angiogenesis suppression effect between deglyco C1 IgG and bevacizumab, tube formation and migration assay were conducted in the presence or absence of parent antibody IgG, deglyco C1 IgG or bevacizumab as a positive control group.

[3] = tested on: phosphorylation of VEGFR, Akt and ERK; experiment: immunoblot of VEGF-dependent signaling in HUVECs; format: cell-based, human; details: VEGF-treated HUVECs
Text: In order to investigate effects of deglyco C1 IgG on VEGF-dependent signaling actions in endothelial cells, VEGF-treated HUVECs were subjected to immunoblot analysis in the presence or absence of deglyco C1 IgG to monitor changes in phosphorylation of VEGFR (VEGF receptor), Akt and ERK (extracellular signal-regulated kinase).

HUVEC tube formation = HUVEC tube formation assay; format: cell-based, human; details: branches as % of MOCK
Experimental: as §1, §2
In order to investigate in vitro effects of deglyco C1 IgG on VEGF-dependent angiogenesis, HUVECs were treated with VEGF in the presence or absence of deglyco C1 IgG, and then HUVEC tube formation assay was conducted. 150 μl of Matrigel was added to a 48-well plate and incubated at 37° C. for 30 minutes. HUVEC (10^5) cultured in EGM-2 were collected, seeded on the Matrigel-coated plate and incubated at 37° C. for 18 hours in the presence or absence of clone 1 IgG, parent antibody IgG, deglycosylated clec14a-CTLD IgG or bevacizumab. HUVECs cultured in VEGF-containing EBM (endothelial cell basal medium) were seeded to the Matrigel-coated plate and incubated at 37° C. for 18 hours in the presence or absence of deglyco C1 IgG (20 μg ml^−1).

[4] = target: T1, hclec14-CTLD and hclec14a-ECD interaction (Homo sapiens, UniProt Q86T13); experiment: ELISA: interaction of hclec14a-CTLD-Fc-HRP with hclec14a-ECD; format: binding; details: increasing antibody concentration
T1 construct: hclec14a-CTLD-Fc-HRP was incubated together with purified hclec14a-ECD; hclec14a-ECD (extracellular domain of human clec14a); myc (C)
T1 sequence (Q86T13 33-173 limits assumed): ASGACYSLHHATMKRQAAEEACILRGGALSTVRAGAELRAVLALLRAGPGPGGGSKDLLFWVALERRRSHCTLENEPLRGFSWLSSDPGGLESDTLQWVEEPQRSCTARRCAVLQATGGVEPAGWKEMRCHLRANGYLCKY
Experimental: In addition, hclec14a-CTLD-Fc-HRP was incubated together with purified hclec14a-ECD in the presence of an increasing concentration of parent antibody IgG or deglyco C1 IgG, or in the absence thereof.

[5] = in vivo toxicity in normal mouse; details: intravenous, twice a week
Text: In order to investigate in vivo toxicity of deglyco C1 IgG, deglyco C1 IgG was intravenously injected into a normal mouse twice a week, and hepatic and renal functions, body weight, and apoptosis conditions of hepatic and renal tissues between control groups and experimental groups were then compared. The hepatic function was investigated by measuring serum concentrations of glutamic-oxaloacetic transaminase (GOT), glutamic pyruvic transaminase (GPT), and total bilirubin (TBIL), and the renal function was investigated by measuring the concentrations of blood urea nitrogen (BUN) and creatinine (CRE). Apoptosis was measured by TUNEL staining.

HCT116/Beva cells = experiment: Matrigel plug angiogenesis assay, CD31 microvessel density; format: in vivo; details: single dose of 5 mg/kg, 14 days
Experimental: (§3) Matrigel plug angiogenesis assay was conducted in the presence of deglyco C1 IgG or bevacizumab with a single dose of 5 mg/kg or the absence thereof using HCT116 human colorectal cancer cells and bevacizumab-applied HCT116 human colorectal cancer cells (HCT116 and HCT116/Beva). 14 days later, the Matrigel plug was removed, and immunohistochemistry was conducted on CD31 and microvascular markers. A microvessel density was measured by quantifying CD31 positive per field in an image each obtained by a confocal microscope.

[6] = tested on: HCT116 human colorectal cancer cells; experiment: as above; format: in vivo; details: single dose of 5 mg/kg, 14 days
Experimental: as §3

HUVEC activity = experiment: endothelial cell activation (VCAM-1, ICAM-1 expression); format: cell-based, human
Experimental: In addition, the morphology of HUVEC was evaluated in the presence or absence of deglyco C1 IgG using immunocytochemistry. […] In order to evaluate effects of deglyco C1 IgG on the activity of endothelial cells, which is an initial inflammatory response to a harmful stimulus, HUVECs were treated with deglyco C1 IgG, and expression of an endothelial cell activity marker including VCAM-1 (vascular cell adhesion molecule-1) and ICAM-1 (intercellular cell adhesion molecule-1) was measured to monitor HUVEC activity. Human tumor necrosis factor-alpha (hTNFα) was used as a positive control group for endothelial cell activity.

B1: deglyco C1 IgG: deglycosylated clone 1 IgG; light chain CDR1 TGSSSNIGRCGVT (SEQ ID NO: 2), N32R/N33C/S34G (antibody, V domains shown)
VH: EVQLVESGGGLVQPGGSLRLSCAVSGFTFSGYDMSWIRQAPGKGLEWVAGIYPDGGNTYYADSVKGRFTISRDDSKNTFYLQMNSLRAEDTAVYYCARGATWWVLGPFDYWGQGTLVTVSS
VL: DIQLTQSPSSLSASVGDRVTITCTGSSSNIGRCGVTWYQQKPGKAPKLLIYADSHRPSGVPSRFSGSGSGTDFTLTISSLQPEDFATYYCGAWDDSLSGYVFGQGTKVEIKR
With B1 the “Final um, After φ” value [1] was 4.821 mg, the “Final um, Before φ” value [1] was 4.859 mg and the “Fraction1, After φ” value [1] was 0.009 mg. For the same molecule, the “Fraction1, Before φ” value [1] was 0.011 mg, the “Fraction2, After φ” value [1] was 3.763 mg and the “Fraction2, Before φ” value [1] was 3.792 mg. The “Fraction3, After φ” value [1] was 0.921 mg, the “Fraction3, Before φ” value [1] was 0.938 mg and the “Fraction4, After φ” value [1] was 0.128 mg. The “Fraction4, Before φ” value [1] was 0.129 mg, the “viability of HUVECs” value (HUVECs) was “did not exhibit cytotoxic effects” and the “suppression of binding of clec14a-CTLD to HUVECs” value [2] was “significantly suppressed”. For the same molecule, the body weight (U87 human glioma; U87 tumor model) was “no impact on body weight”, the “tumor size of U87 cells” value (U87 human glioma; measured weekly for one month) was “significantly reduces the tumor sizes” and the “inhibitory activity against HUVEC migration” value (HUVEC migration) was “most excellent inhibitory activity”. The “inhibitory activity against HUVEC migration” value (HUVEC migration; listed as Deglyco C1 IgG) was “inhibited migration to a similar extent to bevacizumab”, the “VEGF-dependent phosphorylation of VEGFR, Akt and ERK” value [3] was “almost no effect” and the “inhibitory activity against HUVEC tube formation” value (HUVEC tube formation) was “most excellent inhibitory activity”. For the same molecule, the “inhibitory activity against HUVEC tube formation” value (HUVEC tube formation; listed as Deglyco C1 IgG) was “significantly suppressed”, the “suppression of interaction between hclec14-CTLD and hclec14a-ECD” value [4] was “directly suppressed” and the “apoptosis of hepatic and renal tissues (TUNEL)” value [5] was “apoptosis conditions were observed”. For the same molecule, the body weight [5] was “no significant change in body weight”, the “hepatic and renal functions (GOT, GPT, TBIL, BUN, CRE)” value [5] was “no significant change” and the “microvessel formation (CD31 positive per field), HCT116/Beva” value (HCT116/Beva cells) was “significantly suppressed”. The “microvessel formation (CD31 positive per field), HCT116” value [6] was “significantly reduced microvessel formation ability” and the “HUVEC activity (VCAM-1, ICAM-1 expression)” value (HUVEC activity) was “almost no impact”.
